{"source": "patent US20230134580A1", "about": "(SHANGHAI HENLIUS BIOTECH, published 2023)", "key": {"[1]": {"target": "T1, human TIGIT (T cell immunoreceptor with Ig and ITIM domains), expressed on cells (human, UniProt Q495A1 22-244)", "T1 sequence": "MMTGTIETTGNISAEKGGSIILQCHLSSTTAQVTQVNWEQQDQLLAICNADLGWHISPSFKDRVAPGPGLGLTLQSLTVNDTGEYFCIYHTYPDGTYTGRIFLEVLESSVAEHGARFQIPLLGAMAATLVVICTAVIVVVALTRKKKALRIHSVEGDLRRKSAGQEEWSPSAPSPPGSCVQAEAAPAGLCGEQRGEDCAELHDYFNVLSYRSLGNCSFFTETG", "experiment": "cell-based or functional assay"}, "[2]": {"target": "T1, human TIGIT (T cell immunoreceptor with …)", "experiment": "cell-based or functional assay", "remark": "listed apart in the source"}, "[3]": {"target": "T1, human TIGIT (T cell immunoreceptor with …)", "experiment": "cell-based or functional assay", "remark": "listed apart in the source"}, "[4]": {"target": "T1, human TIGIT (T cell immunoreceptor with …)", "experiment": "whole cell binding assays, n=3 (FIG. 10A)", "procedure": "Jurkat cells stably expressing human TIGIT and NFAT reporter gene were established. Specifically, Jurkat cells were transfected with human TIGIT expression vector by electroporation, and cells stably expressing human TIGIT were selected by 1 μg/ml puromycin during cell culture. Representative antibody clones were incubated at different concentrations with h-TIGIT stably expressing Jurkat cells (0.2×10^6/ml) in 100 μl/well in 96-well plate in FACS buffer (PBS with 1.5% FBS) for 30 min. After washing, Alexaflour 488 conjugated anti-human IgG Fc secondary antibody (Alexa Fluor® 488 AffiniPure Goat Anti-Human IgG, Fcγ fragment specific, Jackson labs, 1:500 dilution) was added and incubated for 30 min. After washing, mean fluorescence intensity was measured using CytoFlex (Beckman Coulter) by gating live cell population. Binding affinity was calculated using GraphPad Prism."}}, "note": "Read-outs that look alike come from different tables or passages of the source."}
{"binder": "Bivalent 2A3 antibody (2A3-Fc) (Fc fusion, ExpiCHO, protein A purified; also called 2A3 clone; parental 2A3-Fc; not shown: human IgG1 CH2 and CH3 domains) QVQLVESGGGVVQPGRSLRLSCAASGGSFSSYPMGWFRQAPGKERESVAAISSDMRFTYYADSVKGRFTISRDNSKNTLYLQMNSLRAEDTAVYYCAARDSGVGYYSRAQWYDYWGQGTLVTVSS", "values": [{"measurement": "EC50, NFAT luciferase reporter assay (n=3)", "setting": "[1]", "result": 0.48, "unit": "nM"}, {"measurement": "EC50 (read off the curve), NFAT luciferase reporter, TIGIT blockade", "setting": "[2]", "result": "~1", "unit": "nM"}, {"measurement": "EC50 (read off the curve), NFAT luciferase reporter, TIGIT blockade", "setting": "[3]", "result": "~0.7", "unit": "nM"}, {"measurement": "EC50", "setting": "[4]", "result": 0.32, "unit": "nM"}]}
